B1: His6-σ32 T52pBPA, P0AGB3 K51E (protein)
chain: MTDKMQSLALAPVGNLDSYIRAANAWPMLSADEERALAEKLHYHGDLEAAE
B2: His6-σ32 T52pBPA, P0AGB3 A50D (protein)
chain: MTDKMQSLALAPVGNLDSYIRAANAWPMLSADEERALAEKLHYHGDLEADK

Molecular target: T1, Ffh (the protein subunit of signal recognition particle, SRP), wild type, P0AGD7
T1 chain: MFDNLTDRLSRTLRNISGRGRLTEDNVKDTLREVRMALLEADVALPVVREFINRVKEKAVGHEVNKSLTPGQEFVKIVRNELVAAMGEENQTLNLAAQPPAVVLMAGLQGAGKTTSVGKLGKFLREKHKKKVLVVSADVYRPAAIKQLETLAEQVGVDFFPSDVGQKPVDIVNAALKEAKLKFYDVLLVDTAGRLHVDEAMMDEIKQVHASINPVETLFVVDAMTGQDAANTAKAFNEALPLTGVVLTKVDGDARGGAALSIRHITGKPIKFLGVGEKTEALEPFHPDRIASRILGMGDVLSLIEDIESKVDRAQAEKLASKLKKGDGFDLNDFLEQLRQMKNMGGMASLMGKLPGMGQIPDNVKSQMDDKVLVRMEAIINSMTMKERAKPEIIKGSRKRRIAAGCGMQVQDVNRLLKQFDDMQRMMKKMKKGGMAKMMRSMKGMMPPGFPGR
Assay: in vivo photo-cross-linking ([35S]Met pulse-labeling, immunoprecipitation, SDS-PAGE, phosphorimaging)
Settings: chain shown with the change; 30 °C, M9-based medium with 1 mM pBPA, 1 mM IPTG for 6 min, [35S]Met for 1 min, UV irradiation; parent: 100; read off a plot

Q: With B1 as the molecule, how does the percent of parent (parent (no dysregulation mutation) = 100) read?
A: 95

Q: Which percent of parent (parent (no dysregulation mutation) = 100) does the source give for B2 here?
A: 36

Q: For MTDKMQSLALAPVGNLDSYIRAANAWPMLSADEERALAEKLHYHGDLEAD [His6-σ32 K51pBPA, P0AGB3 A50D], which percent of parent (parent (no dysregulation mutation) = 100) is on record?
A: 7.6

The molecules below were run against Ffh (the protein subunit of signal recognition particle, SRP), wild type (UniProt P0AGD7) in the same assay as above. Settings: 30 °C, M9-based medium with 1 mM pBPA, 1 mM IPTG for 6 min, [35S]Met for 1 min, UV irradiation; parent: 100; read off a plot.

Q: For “His6-σ32 K51pBPA (from UniProt P0AGB3) I54N”, which percent of parent (parent (no dysregulation mutation) = 100) is on record?
A: 53

Q: For “His6-σ32 K51pBPA (from UniProt P0AGB3) R91P”, which percent of parent (parent (no dysregulation mutation) = 100) is on record?
A: 78

Q: “His6-σ32 T52pBPA (from UniProt P0AGB3) I54N” was tested. Which percent of parent (parent (no dysregulation mutation) = 100) did it give?
A: 43

Q: “His6-σ32 T52pBPA (from UniProt P0AGB3) R91P” was tested. Which percent of parent (parent (no dysregulation mutation) = 100) did it give?
A: 76
